From patent US20020150536A1
pIC50: −log10 of the molar value.

Experiments:
αvβ3 integrin (human) [1] = molecular target: αvβ3 integrin (human) (UniProt P06756); experiment: competition ELISA, displacement of biotinylated fibrinogen (6 nM) from immobilized αvβ3 (FIG. 4B)
αvβ3 integrin (human) [2] = molecular target: αvβ3 integrin (human) (UniProt P06756); experiment: competition ELISA, displacement of biotinylated vitronectin (10 nM) from immobilized αvβ3 (FIG. 4A)

A pIC50 (αvβ3 integrin (human) [1]) of 8.20 and a pIC50 (αvβ3 integrin (human) [2]) of 8.57 were found for αvβ3-specific monoclonal antibody LM609 in this work.
